Reference: paper PMC7782793, “Hydroxamic acid-modified peptide microarrays for profiling isozyme-selective interactions and inhibition of histone deacetylases” (Nature Communications, 2021)
Starred links: 1 amine or outer side, 2 acyl side, 3 side chain; linkers in the order of their positions; H or OH if unused. Non-standard residues stand in square brackets, D forms with d. Primed or numbered codes have the meaning given here. No end group written: not given here. Asuha″ = L-2-amino-8-(hydroxyamino)-8-oxooctanoic acid, O=C(CCCCC[C@H](N[*:1])C(=O)[*:2])NO; Asuha = 2-aminosuberic acid hydroxamate, O=C(CCCCC[C@H](N[*:1])C(=O)[*:2])NO[*:3]

Assays:
Test in all cases: Recombinant HDAC µSPOT microarray binding assay;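 for Bottom (dose-response curve fit): peptide spots on cellulose slides incubated with rising HDAC enzyme concentrations, imaged together, four-parameter logistic fit, EC50 is enzyme concentration giving half-maximal binding signal, two experiments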;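 for Bottom (dose-response fit): relative spot intensity from the six enzyme-concentration slides imaged together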;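 for Bottom (dose-response fit): slides with spotted peptides incubated with six HDAC concentrations in HEPES buffer pH 7.4, spot intensities fitted by four-parameter logistic, EC50 as enzyme concentration giving half-maximal binding signal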;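 for LogEC50 (M): peptide spots on cellulose slides incubated with rising HDAC enzyme concentrations, imaged together, four-parameter logistic fit, EC50 is enzyme concentration giving half-maximal binding signal, two experiments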;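 for Top (dose-response curve fit): peptide spots on cellulose slides incubated with rising HDAC enzyme concentrations, imaged together, four-parameter logistic fit, EC50 is enzyme concentration giving half-maximal binding signal, two experiments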;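 for Top (dose-response fit): relative spot intensity from the six enzyme-concentration slides imaged together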;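 for Top (dose-response fit): slides with spotted peptides incubated with six HDAC concentrations in HEPES buffer pH 7.4, spot intensities fitted by four-parameter logistic, EC50 as enzyme concentration giving half-maximal binding signal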
HDAC1 = target: T1, HDAC1 (Homo sapiens, UniProt Q13547); conditions: µSPOT microarray; for Bottom (dose-response fit): fitted bottom plateau of the binding curve; for Top (dose-response fit): fitted top plateau of the binding curve;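 for Bottom (dose-response fit): relative spot intensity from the six enzyme-concentration slides imaged together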;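 for Top (dose-response fit): relative spot intensity from the six enzyme-concentration slides imaged together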;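 for all read-outs here: slides with spotted peptides incubated with six HDAC concentrations in HEPES buffer pH 7.4, spot intensities fitted by four-parameter logistic, EC50 as enzyme concentration giving half-maximal binding signal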
T1 construct: HDAC1 (full length, C-terminal His tag, C-terminal FLAG tag, BPS Bioscience, cat. #: 50051); FLAG (C); purchased BPS Bioscience 50051
T1 sequence (Q13547 whole entry): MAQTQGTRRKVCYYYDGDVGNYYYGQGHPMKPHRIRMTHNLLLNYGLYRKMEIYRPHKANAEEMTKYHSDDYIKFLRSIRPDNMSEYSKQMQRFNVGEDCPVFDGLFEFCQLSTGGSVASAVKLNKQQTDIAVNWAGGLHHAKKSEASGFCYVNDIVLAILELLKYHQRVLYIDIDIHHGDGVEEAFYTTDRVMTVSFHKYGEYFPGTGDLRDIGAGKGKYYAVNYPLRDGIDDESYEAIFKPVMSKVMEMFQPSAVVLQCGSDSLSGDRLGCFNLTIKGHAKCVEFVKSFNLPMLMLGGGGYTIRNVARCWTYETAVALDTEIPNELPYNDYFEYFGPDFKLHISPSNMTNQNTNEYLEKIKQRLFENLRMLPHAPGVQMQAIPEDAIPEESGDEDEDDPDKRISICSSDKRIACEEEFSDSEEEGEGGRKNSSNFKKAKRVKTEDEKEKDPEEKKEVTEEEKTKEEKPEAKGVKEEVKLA
Procedure: (§1) Experiments were performed twice, data were obtained with Array Analyze software (Active Motif), and data analysis and representation were performed with the GraphPad Prism 7 software. Outliers were curated manually and data were fitted to nonlinear regression [log(agonist) vs. response—variable slope (four parameters)]. […] Non-sigmoidal curves were denoted as not determined (N.D.) The pEC50 values were determined as the concentration of HDAC enzyme required for half-maximal binding signal.

HDAC2 = target: T2, HDAC2 (Homo sapiens, UniProt Q92769); conditions: for Bottom (Value) / Top (Value) / HillSlope (Value): HDAC2 microarray dose-response curve fit, X = Asuha, sheet Fig. 3 HDAC2; for Bottom (Value): bottom plateau; for Top (Value): top plateau; for Bottom / HillSlope / Top: dose-response fit parameter, µSPOT microarray, H4 K12X (X = Asuha) peptides, HDAC2;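 for all read-outs here: Cellulose-bound peptide spots on slides incubated with six HDAC enzyme concentrations, binding intensity read, four-parameter variable-slope fit, EC50 is enzyme concentration giving half-maximal binding, in HEPES buffer pH 7.4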
T2 construct: HDAC2 (full length, C-terminal His tag, BPS Bioscience, cat. #: 50002); purchased BPS Bioscience 50002
T2 sequence (Q92769 whole entry): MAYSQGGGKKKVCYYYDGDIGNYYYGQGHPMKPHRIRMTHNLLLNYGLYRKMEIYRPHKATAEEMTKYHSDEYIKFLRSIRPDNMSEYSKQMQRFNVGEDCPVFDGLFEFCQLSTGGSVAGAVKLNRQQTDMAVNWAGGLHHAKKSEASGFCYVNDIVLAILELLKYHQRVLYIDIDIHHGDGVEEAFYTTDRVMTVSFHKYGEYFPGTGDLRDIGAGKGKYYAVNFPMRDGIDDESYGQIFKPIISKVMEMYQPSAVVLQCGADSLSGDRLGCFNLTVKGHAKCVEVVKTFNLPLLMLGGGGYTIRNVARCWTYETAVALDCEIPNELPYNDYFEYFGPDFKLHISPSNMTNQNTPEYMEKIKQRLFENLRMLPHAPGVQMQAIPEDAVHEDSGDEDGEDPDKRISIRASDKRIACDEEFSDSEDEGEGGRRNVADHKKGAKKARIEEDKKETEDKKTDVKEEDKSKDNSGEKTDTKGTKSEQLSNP
Procedure: as §1

HDAC8 = target: T3, HDAC8 (Homo sapiens, UniProt Q9BY41); conditions: for HillSlope (Value): Hill slope of the µSPOT microarray dose-response fit; for HillSlope (Value) / Bottom (Value) / Top (Value): X = Asuha peptides; for Bottom (Value): fitted bottom of the µSPOT microarray dose-response curve; for Top (Value): fitted top of the µSPOT microarray dose-response curve;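 for all read-outs here: peptide µSPOT slides incubated with varying HDAC enzyme concentrations, imaged signal intensity fitted by four-parameter variable-slope regression, EC50 is enzyme concentration giving half-maximal binding, pH 7.4 HEPES buffer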
T3 construct: HDAC8 (full length, C-terminal His tag, BPS Bioscience, cat. #: 50008); purchased BPS Bioscience 50008
T3 sequence (Q9BY41 1-377): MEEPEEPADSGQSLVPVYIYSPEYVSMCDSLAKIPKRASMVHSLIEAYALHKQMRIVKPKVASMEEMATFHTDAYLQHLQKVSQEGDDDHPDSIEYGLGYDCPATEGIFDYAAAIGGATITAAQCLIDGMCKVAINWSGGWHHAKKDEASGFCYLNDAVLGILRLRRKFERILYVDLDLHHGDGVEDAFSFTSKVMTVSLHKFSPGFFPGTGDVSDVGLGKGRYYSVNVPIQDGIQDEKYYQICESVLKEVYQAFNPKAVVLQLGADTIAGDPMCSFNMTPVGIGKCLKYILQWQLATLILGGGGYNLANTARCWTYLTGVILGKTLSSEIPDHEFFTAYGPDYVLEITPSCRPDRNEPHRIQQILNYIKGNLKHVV

HDAC3/NCoR2 = target: T4, HDAC3/NCoR2 (Homo sapiens, UniProt O15379); conditions: for Bottom (dose-response curve fit): fitted bottom plateau of binding signal; for Top (dose-response curve fit): fitted top plateau of binding signal; for LogEC50 (M): log of EC50 in M, dose-response fit;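 for all read-outs here: peptide spots on cellulose slides incubated with rising HDAC enzyme concentrations, imaged together, four-parameter logistic fit, EC50 is enzyme concentration giving half-maximal binding signal, two experiments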
T4 construct: HDAC3/NCoR2 (full length, C-terminal His tag, NCoR2 N-terminal GST tag); purchased BPS Bioscience 50003
T4 sequence (O15379 whole entry): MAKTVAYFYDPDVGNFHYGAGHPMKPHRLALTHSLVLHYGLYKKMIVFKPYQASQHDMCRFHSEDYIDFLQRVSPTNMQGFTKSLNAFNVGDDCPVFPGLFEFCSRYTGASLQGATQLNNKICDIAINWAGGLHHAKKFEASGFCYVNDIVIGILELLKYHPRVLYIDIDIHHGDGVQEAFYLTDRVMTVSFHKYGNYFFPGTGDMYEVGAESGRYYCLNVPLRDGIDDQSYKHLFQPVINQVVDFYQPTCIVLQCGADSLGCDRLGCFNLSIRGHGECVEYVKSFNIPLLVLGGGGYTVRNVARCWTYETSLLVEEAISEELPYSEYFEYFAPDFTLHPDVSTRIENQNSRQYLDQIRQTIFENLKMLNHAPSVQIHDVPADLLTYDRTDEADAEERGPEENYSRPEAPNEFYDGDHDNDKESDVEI
T4 sequence (Q9Y618 389-480 partner limits assumed): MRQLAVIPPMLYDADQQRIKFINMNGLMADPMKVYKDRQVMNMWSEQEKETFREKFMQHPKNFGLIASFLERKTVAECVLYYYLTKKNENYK

[1] = recombinant HDAC1, Fig. 3, X = Asuha, Hill slope of the binding curve
[2] = recombinant HDAC1, Fig. 3, X = Asuha
[3] = HDAC8 µSPOT microarray dose-response fit, Bottom Value, X = Asuha, sheet Fig. 3 HDAC8
[4] = HDAC8 µSPOT microarray dose-response fit, HillSlope Value, X = Asuha, sheet Fig. 3 HDAC8
[5] = HDAC8 µSPOT microarray dose-response fit, Top Value, X = Asuha, sheet Fig. 3 HDAC8
[6] = HDAC3 µSPOT microarray, Fig. 3, Hill slope of dose-response fit, X = Asuha
[7] = HDAC3 µSPOT microarray, Fig. 3, X = Asuha
[8] = dose-response fit parameter, H4 K12X (X = Asuha) peptides, HDAC1
[9] = dose-response fit parameter, µSPOT microarray, H4 K12X (X = Asuha) peptides, HDAC8
[10] = dose-response fit parameter, µSPOT microarray, H4 K12X (X = Asuha) peptides, HDAC3
[11] = µSPOT microarray, H4 K12X (X = Asuha) peptides, HDAC3

Row | HillSlope (HDAC1; [1]) | Bottom (dose-response fit) (HDAC1; [2]) | Top (dose-response fit) (HDAC1; [2]) | Bottom (Value) (HDAC2) | Top (Value) (HDAC2) | HillSlope (Value) (HDAC2) | Bottom (HDAC8; [3]) | HillSlope (HDAC8; [4]) | Top (HDAC8; [5]) | HillSlope (HDAC3/NCoR2; [6]) | Bottom (dose-response curve fit) (HDAC3/NCoR2; [7]) | Top (dose-response curve fit) (HDAC3/NCoR2; [7]) | Bottom (HDAC1; [8]) | HillSlope (HDAC1; [8]) | Top (HDAC1; [8]) | Bottom (HDAC2) | HillSlope (HDAC2) | Top (HDAC2) | Bottom (HDAC3/NCoR2; [10]) | HillSlope (HDAC3/NCoR2; [10]) | Substance | also measured
1 | 1.29 | 0.03 | 1.15 | 0.02 | 0.12 | 1.69 | -0.5 | 0.02 | 0.56 | 1.99 | 0.01 | 0.17 | – | – | – | – | – | – | – | – | H2B 61-76 (IMNSFVNDIFERIAGE; UniProt P62807 62-77, looked up, fragment) | –
2 | 1.09 | 0.03 | 1.21 | 0.01 | 12.73 | 0.33 | 0.02 | 0.72 | 1.17 | 1.87 | 0.01 | 0.22 | – | – | – | – | – | – | – | – | H2B 64-79 (SFVNDIFERIAGEASR; UniProt P62807 65-80, looked up, fragment) | –
3 | 1.51 | 0.04 | 1.04 | 0.02 | 6.33 | 0.44 | 0.03 | 0.69 | 4.21 | 1.68 | 0.01 | 0.39 | – | – | – | – | – | – | – | – | H2B 67-82 (NDIFERIAGEASRLAH; UniProt P06899 68-83, looked up, fragment) | –
4 | 1.35 | 0.04 | 1.07 | 0.03 | 44.03 | 0.48 | 0.04 | 6.48 | 0.09 | 1.45 | 0.01 | 0.55 | – | – | – | – | – | – | – | – | H2B 91-106 (SREIQTAVRLLLPGEL; UniProt P62807 92-107, looked up, fragment) | –
5 | – | – | – | – | – | – | – | – | – | – | – | – | 0.02 | 0.6 | 1.69 | 0.03 | 1.44 | 0.39 | 0.06 | 4.03 | P10 (KGLG[Asuha]GGAK) | Bottom (HDAC8; [9]): 0.03; HillSlope (HDAC8; [9]): 10.49; Top (HDAC8; [9]): 0.13; Top (HDAC3/NCoR2; [10]): 0.95; LogEC50 (M) (HDAC3/NCoR2; [11]): -8.87 M
6 | – | – | – | – | – | – | – | – | – | – | – | – | 0.01 | 0.67 | 0.47 | 0.02 | 7.89 | 0.14 | 0.04 | 2.48 | P12 (KGLGXGGA; K12 replaced by Asuha (X)) | HillSlope (Value) (HDAC8): 1.3; Bottom (Value) (HDAC8): 0.02; Top (Value) (HDAC8): 0.58; Top (HDAC3/NCoR2; [10]): 0.98; LogEC50 (M) (HDAC3/NCoR2; [11]): -8.71 M
7 | – | – | – | – | – | – | – | – | – | – | – | – | 0.02 | 0.73 | 0.36 | 0.01 | 8.37 | 0.04 | -0.01 | 0.48 | P13 (GLG[Asuha″]GGA) | HillSlope (Value) (HDAC8): 17.49; Bottom (Value) (HDAC8): 0.01; Top (Value) (HDAC8): 0.03; Top (HDAC3/NCoR2; [10]): 24.94
